This note sets out measurements from paper PMC13036084, “Cryo-EM structure of Chlamydomonas reinhardtii Photosystem I complexed with cytochrome c6” (Nature Communications, 2026).

Changes are numbered by the printed parent chain. Names and notes keep the numbering of the source.

The assay addresses T1, PSAF subunit of Chlamydomonas reinhardtii Photosystem I (Chlamydomonas reinhardtii, UniProt P12356 63-227).
T1 construct: PSAF, Photosystem I subunit, Chlamydomonas reinhardtii; the transit peptide segment is included in the numbering of the PDB data; numbers count on: the mature protein; Stood in the experiment as a subunit of the PSI complex m2
T1 sequence (looked up): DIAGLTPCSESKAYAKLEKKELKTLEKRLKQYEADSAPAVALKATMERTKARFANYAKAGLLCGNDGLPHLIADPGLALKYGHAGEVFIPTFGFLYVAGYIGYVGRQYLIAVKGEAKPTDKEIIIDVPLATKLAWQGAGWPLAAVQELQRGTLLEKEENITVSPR
Nature of the assay: cross-linking; non-activated Cyt c6 (4 μM) and PSI (40 μg Chl/mL) in 30 mM HEPES/KOH pH 7.5, 1 mM ascorbate, 0.1 mM DAD, 3 mM MgCl2, 0.03% α-DDM with 5 mM EDC and 10 mM sulfo-NHS, 45 min, room temperature, dark; quenched with 50 mM Tris pH 8.0; SDS-PAGE and Western blot with anti-Cyt c6. Particulars: both partners purified. In general terms: A western blot detects proteins with antibodies after separation by electrophoresis.

B1: Chlamydomonas reinhardtii cytochrome c6 E69Q/E70Q (natural protein)
chain: ADLALGAQVFNGNCAACHMGGRNSVMPEKTLDKAALEQYLDGGFKVESIIYQVENGKGAMPAWADRLSQQEIQAVAEYVFKQATDAAWKY
modifications: heme group (heme protein)
notes: cytochrome c6, Chlamydomonas reinhardtii; also called Cyt c6 (E69Q/E70Q); E69Q/E70Q double mutant; source: E. coli BL21, co-transformed with pEC86 (Ccm genes), purified (DEAE anion exchange, size exclusion)
For the molecule B1, the binding result was “binds”.

B2: Chlamydomonas reinhardtii cytochrome c6 E71Q (natural protein)
chain: B1 chain with Q69E, Q70E, E71Q
modifications: heme group (heme protein)
notes: cytochrome c6, Chlamydomonas reinhardtii; also called Cyt c6 (E71Q); source: E. coli BL21, co-transformed with pEC86 (Ccm genes), purified (DEAE anion exchange, size exclusion)
For B2, the binding result is given as “binds”.
